The supplement of paper PMC11246515
± gives the standard deviation of the averaged measurements.

Test: total protein half-life in vivo (active degradation + dilution); higher = more stable protein
[1] = E. coli NCM3722 delta-clpP, growth: N-lim chemostat, doubling time 6 h
[2] = E. coli NCM3722 delta-hslV, growth: N-lim chemostat, doubling time 6 h
[3] = E. coli NCM3722 delta-lon, growth: N-lim chemostat, doubling time 6 h
[4] = E. coli NCM3722 delta-smpB, growth: N-lim chemostat, doubling time 6 h
[5] = wild type E. coli NCM3722, growth: C-lim chemostat, doubling time 12 h
[6] = wild type E. coli NCM3722, growth: N-lim chemostat, doubling time 6 h
[7] = wild type E. coli NCM3722, growth: N-lim chemostat, doubling time 12 h
[8] = wild type E. coli NCM3722, growth: P-lim chemostat, doubling time 6 h
[9] = E. coli NCM3722 delta-clpP delta-lon delta-hslV, growth: N-lim chemostat, doubling time 6 h
[10] = wild type E. coli NCM3722, growth: C-lim chemostat, doubling time 3 h
[11] = wild type E. coli NCM3722, growth: C-lim chemostat, doubling time 6 h
[12] = wild type E. coli NCM3722, growth: P-lim chemostat, doubling time 12 h

Sequence	total protein half-life in vivo [1]	total protein half-life in vivo [2]	total protein half-life in vivo [3]	total protein half-life in vivo [4]	total protein half-life in vivo [5]	total protein half-life in vivo [6]	total protein half-life in vivo [7]	total protein half-life in vivo [8]	total protein half-life in vivo [9]	total protein half-life in vivo [10]	total protein half-life in vivo [11]	total protein half-life in vivo [12]
MANFFIDRPIFAWVLAILLCLTGTLAIFSLPVEQYPDLAPPNVRVTANYPGASAQTLENTVTQVIEQNMTGLDNLMYMSSQSSGTGQASVTLSFKAGTDPDEAVQQVQNQLQSAMRKLPQAVQNQGVTVRKTGDTNILTIAFVSTDGSMDKQDIADYVASNIQDPLSRVNGVGDIDAYGSQYSMRIWLDPAKLNSFQMTAKDVTDAIESQNAQIAVGQLGGTPSVDKQALNATINAQSLLQTPEQFRDITLRVNQDGSEVRLGDVATVEMGAEKYDYLSRFNGKPASGLGVKLASGANEMATAELVLNRLDELAQYFPHGLEYKVAYETTSFVKASIEDVVKTLLEAIALVFLVMYLFLQNFRATLIPTIAVPVVLMGTFSVLYAFGYSVNTLTMFAMVLAIGLLVDDAIVVVENVERIMSEEGLTPREATRKSMGQIQGALVGIAMVLSAVFVPMAFFGGTTGAIYRQFSITIVAAMVLSVLVAMILTPALCATLLKPLKKGEHHGQKGFFAWFNQMFNRNAERYEKGVAKILHRSLRWIVIYVLLLGGMVFLFLRLPTSFLPLEDRGMFTTSVQLPSGSTQQQTLKVVEQIEKYYFTHEKDNIMSVFATVGSGPGGNGQNVARMFIRLKDWSERDSKTGTSFAIIERATKAFNQIKEARVIASSPPAISGLGSSAGFDMELQDHAGAGHDALMAARNQLLALAAENPELTRVRHNGLDDSPQLQIDIDQRKAQALGVAIDDINDTLQTAWGSSYVNDFMDRGRVKKVYVQAAAPYRMLPDDINLWYVRNKDGGMVPFSAFATSRWETGSPRLERYNGYSAVEIVGEAAPGVSTGTAMDIMESLVKQLPNGFGLEWTAMSYQERLSGAQAPALYAISLLVVFLCLAALYESWSVPFSVMLVVPLGVIGALLATWMRGLENDVYFQVGLLTVIGLSAKNAILIVEFANEMNQKGHDLFEATLHACRQRLRPILMTSLAFIFGVLPMATSTGAGSGGQHAVGTGVMGGMISATILAIYFVPLFFVLVRRRFPLKPRPE	6.56 ± 0.62 h	6.24 ± 0.45 h	6.05 ± 0.57 h	5.38 ± 0.37 h	12 ± 2.9 h	6.06 ± 0.82 h	12.3 ± 0.86 h	6.36 ± 0.17 h				
MKKVLLIILLLLVVLGIAAGVGVWKVRHLADSKLLIKEETIFTLKPGTGRLALGEQLYADKIINRPRVFQWLLRIEPDLSHFKAGTYRFTPQMTVREMLKLLESGKEAQFPLRLVEGMRLSDYLKQLREAPYIKHTLSDDKYATVAQALELENPEWIEGWFWPDTWMYTANTTDVALLKRAHKKMVKAVDSAWEGRADGLPYKDKNQLVTMASIIEKETAVASERDKVASVFINRLRIGMRLQTDPTVIYGMGERYNGKLSRADLETPTAYNTYTITGLPPGAIATPGADSLKAAAHPAKTPYLYFVADGKGGHTFNTNLASHNKSVQDYLKVLKEKNAQ	6.52 ± 1.1 h	6.8 ± 0.6 h	6.58 ± 0.69 h	6.22 ± 0.74 h	12.7 ± 1.6 h	6.34 ± 0.68 h	12.4 ± 1.7 h	6 ± 0.25 h	6.33 ± 0.68 h	3.49 ± 0.33 h	6.65 ± 0.64 h	12 ± 0.45 h
MKRNTKIALVMMALSAMAMGSTSAFAHGGHGMWQQNAAPLTSEQQTAWQKIHNDFYAQSSALQQQLVTKRYEYNALLAANPPDSSKINAVAKEMENLRQSLDELRVKRDIAMAEAGIPRGAGMGMGYGGCGGGGHMGMGHW [P0AAA9]							13 h					
MKLKNTLLASALLSAMAFSVNAATELTPEQAAAVKPFDRVVVTGRFNAIGEAVKAVSRRADKEGAASFYVVDTSDFGNSGNWRVVADLYKADAEKAEETSNRVINGVVELPKDQAVLIEPFDTVTVQGFYRSQPEVNDAITKAAKAKGAYSFYIVRQIDANQGGNQRITAFIYKKDAKKRIVQSPDVIPADSEAGRAALAAGGEAAKKVEIPGVATTASPSSEVGRFFETQSSKGGRYTVTLPDGTKVEELNKATAAMMVPFDSIKFSGNYGNMTEVSYQVAKRAAKKGAKYYHITRQWQERGNNLTVSADLYK	5.99 ± 0.45 h	5.8 ± 0.2 h	5.46 ± 0.12 h	5.116 ± 0.0047 h	10.5 ± 0.55 h	5.47 ± 0.23 h	9.68 ± 0.69 h	5.61 ± 0.079 h	5.73 ± 0.21 h	3.13 ± 0.059 h	5.73 ± 0.11 h	11.1 ± 0.13 h
MVFRIASSPYTHNQRQTSRIMLLVLLAAVPGIAAQLWFFGWGTLVQILLASVSALLAEALVLKLRKQSVAATLKDNSALLTGLLLAVSIPPLAPWWMVVLGTVFAVIIAKQLYGGLGQNPFNPAMIGYVVLLISFPVQMTSWLPPHEIAVNIPGFIDAIQVIFSGHTASGGDMNTLRLGIDGISQATPLDTFKTSVRAGHSVEQIMQYPIYSGILAGAGWQWVNLAWLAGGVWLLWQKAIRWHIPLSFLVTLALCAMLGWLFSPETLAAPQIHLLSGATMLGAFFILTDPVTASTTNRGRLIFGALAGLLVWLIRSFGGYPDGVAFAVLLANITVPLIDYYTRPRVYGHRKG					13 ± 0.93 h	6.53 h	9.64 h		7.06 h	> 4 h		13 ± 1.1 h
MKTLNRRDFPGAQYPERIIQFGEGNFLRAFVDWQIDLLNEHTDLNSGVVVVRPIETSFPPSLSTQDGLYTTIIRGLNEKGEAVSDARLIRSVNREISVYSEYDEFLKLAHNPEMRFVFSNTTEAGISYHAGDKFDDAPAVSYPAKLTRLLFERFSHFNGALDKGWIIIPCELIDYNGDALRELVLRYAQEWALPEAFIQWLDQANSFCSTLVDRIVTGYPRDEVAKLEEELGYHDGFLDTAEHFYLFVIQGPKSLATELRLDKYPLNVLIVDDIKPYKERKVAILNGAHTALVPVAFQAGLDTVGEAMNDAEICAFVEKAIYEEIIPVLDLPRDELESFASAVTGRFRNPYIKHQLLSIALNGMTKFRTRILPQLLAGQKANGTLPARLTFALAALIAFYRGERNGETYPVQDDAHWLERYQQLWSQHRDRVIGTQELVAIVLAEKDHWEQDLTQVPGLVEQVANDLDAILEKGMREAVRPLC [P0A6L7]					8.15 ± 1.3 h			5.26 ± 0.51 h		3.15 ± 0.18 h	4.58 ± 0.071 h	
MNIIAIMGPHGVFYKDEPIKELESALVAQGFQIIWPQNSVDLLKFIEHNPRICGVIFDWDEYSLDLCSDINQLNEYLPLYAFINTHSTMDVSVQDMRMALWFFEYALGQAEDIAIRMRQYTDEYLDNITPPFTKALFTYVKERKYTFCTPGHMGGTAYQKSPVGCLFYDFFGGNTLKADVSISVTELGSLLDHTGPHLEAEEYIARTFGAEQSYIVTNGTSTSNKIVGMYAAPSGSTLLIDRNCHKSLAHLLMMNDVVPVWLKPTRNALGILGGIPRREFTRDSIEEKVAATTQAQWPVHAVITNSTYDGLLYNTDWIKQTLDVPSIHFDSAWVPYTHFHPIYQGKSGMSGERVAGKVIFETQSTHKMLAALSQASLIHIKGEYDEEAFNEAFMMHTTTSPSYPIVASVETAAAMLRGNPGKRLINRSVERALHFRKEVQRLREESDGWFFDIWQPPQVDEAECWPVAPGEQWHGFNDADADHMFLDPVKVTILTPGMDEQGNMSEEGIPAALVAKFLDERGIVVEKTGPYNLLFLFSIGIDKTKAMGLLRGLTEFKRSYDLNLRIKNMLPDLYAEDPDFYRNMRIQDLAQGIHKLIRKHDLPGLMLRAFDTLPEMIMTPHQAWQRQIKGEVETIALEQLVGRVSANMILPYPPGVPLLMPGEMLTKESRTVLDFLLMLCSVGQHYPGFETDIHGAKQDEDGVYRVRVLKMAG	5.56 ± 0.19 h	5.32 ± 0.2 h	5.36 ± 0.26 h	5.38 ± 0.089 h	10.7 ± 3.7 h	6.16 ± 1.5 h	10.7 ± 0.83 h	6.88 ± 1.5 h		3.21 ± 0.1 h	7.21 ± 0.98 h	11.92 ± 0.053 h
MQFSKMHGLGNDFMVVDAVTQNVFFSPELIRRLADRHLGVGFDQLLVVEPPYDPELDFHYRIFNADGSEVAQCGNGARCFARFVRLKGLTNKRDIRVSTANGRMVLTVTDDDLVRVNMGEPNFEPSAVPFRANKAEKTYIMRAAEQTILCGVVSMGNPHCVIQVDDVDTAAVETLGPVLESHERFPERANIGFMQVVKREHIRLRVYERGAGETQACGSGACAAVAVGIQQGLLAEEVRVELPGGRLDIAWKGPGHPLYMTGPAVHVYDGFIHL [P0A6K1]	6.48 ± 2.1 h	5.87 ± 0.47 h	5.47 ± 0.1 h	5.32 ± 0.55 h	9.56 ± 0.77 h	5.53 ± 0.74 h	9.83 ± 0.98 h	5.42 ± 0.38 h	6.36 ± 1.1 h	3.44 ± 0.073 h	5.92 ± 0.45 h	11.859 ± 0.004 h
MTQTYNADAIEVLTGLEPVRRRPGMYTDTTRPNHLGQEVIDNSVDEALAGHAKRVDVILHADQSLEVIDDGRGMPVDIHPEEGVPAVELILCRLHAGGKFSNKNYQFSGGLHGVGISVVNALSKRVEVNVRRDGQVYNIAFENGEKVQDLQVVGTCGKRNTGTSVHFWPDETFFDSPRFSVSRLTHVLKAKAVLCPGVEITFKDEINNTEQRWCYQDGLNDYLAEAVNGLPTLPEKPFIGNFAGDTEAVDWALLWLPEGGELLTESYVNLIPTMQGGTHVNGLRQGLLDAMREFCEYRNILPRGVKLSAEDIWDRCAYVLSVKMQDPQFAGQTKERLSSRQCAAFVSGVVKDAFILWLNQNVQAAELLAEMAISSAQRRMRAAKKVVRKKLTSGPALPGKLADCTAQDLNRTELFLVEGDSAGGSAKQARDREYQAIMPLKGKILNTWEVSSDEVLASQEVHDISVAIGIDPDSDDLSQLRYGKICILADADSDGLHIATLLCALFVKHFRALVKHGHVYVALPPLYRIDLGKEVYYALTEEEKEGVLEQLKRKKGKPNVQRFKGLGEMNPMQLRETTLDPNTRRLVQLTIDDEDDQRTDAMMDMLLAKKRSEDRRNWLQEKGDMAEIEV	6.09 ± 0.22 h	5.29 ± 1.9 h	4.41 ± 0.076 h	3.56 ± 0.24 h	7.42 ± 0.43 h	3.79 ± 0.16 h	5.867 ± 0.054 h	3.96 ± 0.39 h	5.85 ± 0.4 h	2.68 ± 0.1 h	4.78 ± 0.23 h	8.4 ± 0.31 h
MQREDVLGEALKLLELQGIANTTLEMVAERVDYPLDELRRFWPDKEAILYDALRYLSQQIDVWRRQLMLDETQTAEQKLLARYQALSECVKNNRYPGCLFIAACTFYPDPGHPIHQLADQQKSAAYDFTHELLTTLEVDDPAMVAKQMELVLEGCLSRMLVNRSQADVDTAHRLAEDILRFARCRQGGALT [P0ACU7]	3.63 ± 0.25 h	4.07 ± 0.91 h	3.78 ± 0.57 h	3.411 ± 0.028 h	10.4 ± 2.6 h	3.44 ± 0.037 h	5.51 ± 0.28 h	5.04 ± 0.78 h	3.74 ± 0.51 h	2.94 ± 0.46 h	4.86 ± 0.17 h	12 ± 0.99 h
MLAQLTISNFAIVRELEIDFHSGMTVITGETGAGKSIAIDALGLCLGGRAEADMVRTGAARADLCARFSLKDTPAALRWLEENQLEDGHECLLRRVISSDGRSRGFINGTAVPLSQLRELGQLLIQIHGQHAHQLLTKPEHQKFLLDGYANETSLLQEMTARYQLWHQSCRDLAHHQQLSQERAARAELLQYQLKELNEFNPQPGEFEQIDEEYKRLANSGQLLTTSQNALALMADGEDANLQSQLYTAKQLVSELIGMDSKLSGVLDMLEEATIQIAEASDELRHYCDRLDLDPNRLFELEQRISKQISLARKHHVSPEALPQYYQSLLEEQQQLDDQADSQETLALAVTKHHQQALEIARALHQQRQQYAEELAQLITDSMHALSMPHGQFTIDVKFDEHHLGADGADRIEFRVTTNPGQPMQPIAKVASGGELSRIALAIQVITARKMETPALIFDEVDVGISGPTAAVVGKLLRQLGESTQVMCVTHLPQVAGCGHQHYFVSKETDGAMTETHMQSLNKKARLQELARLLGGSEVTRNTLANAKELLAA	3.53 ± 0.12 h								5.03 ± 0.093 h			2.48 h
